The record followed here is publication PMC6780499, “Characterization, Recombinant Production and Structure-Function Analysis of NvCI, A Picomolar Metallocarboxypeptidase Inhibitor from the Marine Snail Nerita versicolor” (Marine Drugs, 2019).

No end group written: not given here.

The target of one test is T1, hCPD (Homo sapiens, UniProt O75976).
T1 sequence (O75976 32-1380): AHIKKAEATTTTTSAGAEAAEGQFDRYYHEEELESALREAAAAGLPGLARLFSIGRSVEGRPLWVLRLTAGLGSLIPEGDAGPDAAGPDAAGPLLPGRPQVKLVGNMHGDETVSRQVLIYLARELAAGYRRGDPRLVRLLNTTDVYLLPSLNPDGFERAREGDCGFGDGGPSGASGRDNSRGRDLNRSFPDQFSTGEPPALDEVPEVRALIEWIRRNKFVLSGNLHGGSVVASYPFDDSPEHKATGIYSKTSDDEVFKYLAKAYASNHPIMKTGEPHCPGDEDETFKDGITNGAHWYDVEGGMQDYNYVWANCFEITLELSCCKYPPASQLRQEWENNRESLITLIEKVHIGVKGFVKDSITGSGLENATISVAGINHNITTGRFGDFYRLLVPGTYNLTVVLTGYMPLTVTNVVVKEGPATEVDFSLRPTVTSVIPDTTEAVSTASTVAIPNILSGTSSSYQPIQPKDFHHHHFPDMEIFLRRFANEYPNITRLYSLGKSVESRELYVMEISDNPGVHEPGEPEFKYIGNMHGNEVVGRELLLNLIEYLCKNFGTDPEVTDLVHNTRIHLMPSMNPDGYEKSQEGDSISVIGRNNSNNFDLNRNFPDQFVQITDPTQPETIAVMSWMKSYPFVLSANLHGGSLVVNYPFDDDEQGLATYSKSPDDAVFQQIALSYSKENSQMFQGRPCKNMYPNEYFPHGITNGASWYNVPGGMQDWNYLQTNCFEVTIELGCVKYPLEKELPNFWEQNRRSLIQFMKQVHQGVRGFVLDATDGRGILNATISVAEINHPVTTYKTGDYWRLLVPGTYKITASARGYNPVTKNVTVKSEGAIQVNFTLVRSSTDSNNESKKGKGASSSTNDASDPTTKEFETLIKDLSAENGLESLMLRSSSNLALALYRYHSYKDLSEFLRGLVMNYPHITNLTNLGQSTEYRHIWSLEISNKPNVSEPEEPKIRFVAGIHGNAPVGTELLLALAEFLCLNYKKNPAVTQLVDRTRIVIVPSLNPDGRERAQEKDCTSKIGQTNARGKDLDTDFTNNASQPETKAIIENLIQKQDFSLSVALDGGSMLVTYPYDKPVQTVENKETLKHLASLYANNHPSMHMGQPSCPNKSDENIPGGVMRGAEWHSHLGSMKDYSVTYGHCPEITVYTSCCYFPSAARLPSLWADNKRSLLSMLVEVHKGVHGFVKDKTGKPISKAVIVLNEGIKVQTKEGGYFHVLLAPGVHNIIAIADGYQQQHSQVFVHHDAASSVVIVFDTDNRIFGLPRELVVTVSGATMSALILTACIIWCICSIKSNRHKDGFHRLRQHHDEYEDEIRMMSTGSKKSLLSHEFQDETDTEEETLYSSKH
Description: Ki determination, tight-binding inhibition of metallocarboxypeptidase. It counts as biochemical. Conditions: NI: No inhibitory activity detected for the [I]0 range from 1 nM to 1 mM. How it is done: (§1) Inhibitory activities against CPA- and CPB-type forms (bovine and human variants of CPA1, CPA2, CPA4, CPB1, and TAFI) were assayed for all extracts, subject to the experimental conditions that enzyme (E), substrate (S) and inhibitor (I) concentrations as well as the [I]/[E] ratio and preincubation time followed the requirements for tight-binding inhibitor assays. Similar approaches were followed to measure the activities of proteases of different catalytic types, like pepsin, papain, trypsin and subtilisin [45, 46, 47, 48]. All assays were performed in triplicate at 25 °C in a multiplexed manner. For 96-well assays an iEMS spectrophotometer reader/dispenser FM (Labsystems, Finland) was used with a final reaction volume of 250 μL. For cuvette assays, a Cary 400 Bio spectrophotometer (Varian Inc., Palo Alto, CA, USA) spectrophotometer was used with a final reaction volume of 1 ml. The reactions were followed at 5 s intervals for 5 min and recorded as initial velocities. In the protease inhibition assays, mixtures of activity buffer, biological sample and enzyme were preincubated at 25 °C for 10min, before substrate addition. The assay conditions were as follows: for CPA-like enzymes, 7.0nM CPA, 0.1mM AAFP substrate in 20mM Tris-HCl pH 7.5, 500mMNaCl, 1% v/v dimethyl sulfoxide (DMSO), 0.05% w/v BRIJ-35 was used. For CPB-like enzymes, CPB 3.0nM CPB, 0.1mM AAFA substrate and activity buffer of 20 mM Tris-HCl pH [50].
(§2) The Ki values of natural and recombinant NvCI against bCPA1, hCPA1, hCPA2, rat CPA3, hCPA4, hCPB1, bTAFI, hTAFI, hCPD and hCPZ were determined by measuring the enzymatic residual activity (Vi/V0 = a) at different inhibitor concentrations and using a fixed enzyme and substrate concentrations as described above, where vi and v0 are the fraction of enzymatic activity in the presence and absence of inhibitor, respectively, in terms of initial velocities. The determination of Ki values was carried out on equilibrium conditions ([E0]/Ki ≤ 10), using a previously determined preincubation time of 15 min, required to establish enzyme-inhibitor equilibrium. Working temperature was 37 °C. The best estimates of Ki values were obtained by fitting the experimental data to the equation for tight-binding inhibitors by non-linear regression using the GraphPad Prisma 5 software (GraphPad Software, Inc., San Diego, CA, USA) at p < 0.05. The real Ki values against each of these A/B-type MCPs were calculated according to the equation described by Morrison and Copeland [19, 20].

A further test addresses T2, pCPB (Sus scrofa, UniProt P09955).
T2 sequence (P09955 111-416): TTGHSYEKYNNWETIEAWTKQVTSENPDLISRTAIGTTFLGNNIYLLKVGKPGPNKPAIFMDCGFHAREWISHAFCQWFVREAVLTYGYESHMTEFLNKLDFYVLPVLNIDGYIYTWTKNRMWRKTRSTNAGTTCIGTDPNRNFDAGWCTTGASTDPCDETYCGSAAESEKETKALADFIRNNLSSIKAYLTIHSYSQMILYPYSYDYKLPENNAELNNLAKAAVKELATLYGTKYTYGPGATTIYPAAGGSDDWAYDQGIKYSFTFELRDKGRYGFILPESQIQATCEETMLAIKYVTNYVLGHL
The test is described as above. It counts as biochemical. To be noted: tight-binding equation fit, equilibrium conditions; substrate AAFA 0.1mM; preincubation 15 min; 37 °C; means (n = 3) ± SD. How it is done:
as §1, §2

By Ki is commonly meant a dissociation constant, usually derived from enzyme kinetics or from competition with a known ligand.

Regarding “NvCI: 53-residue, three-disulphide proteinaceous metallocarboxypeptidase inhibitor from the marine snail Nerita versicolor; major isoform; UniProt P86912 (FHVPDDRPCINPGRCPLVPDATCTFVCKAADNDFGYECQHVWTFEGQRVGCYA; disulfide (positions not given here); also: three disulphides, pairing not given here; UniProt P86912 1-53, looked up)”, the inhibitory constant (Ki) with hCPD was more than 1000 µM; with pCPB, 0.00065 ± 1.22e-05 µM.
